Holding throughout (assay): ITC; aliquots of HasBCTD variants (80-200 μM) injected into the cell containing HasR wild type or mutant proteins (4-15 μM); 25°C; 20 mM sodium phosphate, pH 7, 0.08% Zwittergent 3-14; fit to a model with one set of sites
Background: Isothermal titration calorimetry measures the heat released or taken up as one component is titrated into another.

Experiment [1] addresses HasR_(ΔNterL1) (HasR_(ΔNter) with loop L1 P232GKE replaced by ATSA) (Serratia marcescens) (UniProt Q79AD2).
Experiment [2] deals with HasR_(ΔNter) (HasR without the signaling domain, linker and TonB-box) (Serratia marcescens) (UniProt Q79AD2).
For experiment [3], the target named is HasR_(ΔNterL10short) (HasR_(ΔNter) with loop L10 R774AFDRKLD replaced by ATSA) (Serratia marcescens) (UniProt Q79AD2).
For experiment [4], the target named is HasR_(ΔNterL1) (HasR_(ΔNter) with loop L1 P232GKE replaced by ATSA) (Serratia marcescens) (UniProt Q79AD2). This is another data set of the same source.
Experiment [5] deals with HasR_(ΔNter) (HasR without the signaling domain, linker and TonB-box) (Serratia marcescens) (UniProt Q79AD2). This is another data set of the same source.
The target of experiment [6] is HasR wild type (outer membrane heme transporter, TonB-dependent transporter) (Serratia marcescens).

Where two headings read alike, the source gives them in different places.

The term stoichiometry N denotes the number of molecules, sites or subunits per partner or assembly. Regarding “HasBCTD (periplasmic C-terminal domain of the TonB-like protein HasB), wild type (domain or fragment)”, the dH in experiment [1] was 9.2 kcal/mol; in experiment [2], 11.1 kcal/mol; in experiment [3], -2.9 kcal/mol; in experiment [4] it was -9.2 kcal/mol; in experiment [5], -11.1 kcal/mol; in experiment [6], -19.1 kcal/mol. Further, the Ka in experiment [3] stood at 1.45e+08 M⁻¹; in experiment [4], 3.03e+06 M⁻¹; in experiment [5], 2.3e+06 M⁻¹; in experiment [6] it was 7.5e+07 M⁻¹. Moreover, the stoichiometry N in experiment [3] came to 0.98; in experiment [4] it was 1.1; in experiment [5] it was 1.1; in experiment [6], 1.03.

Source of the values: publication PMC11633176.
